According to publication PMC9645528, “Structural and functional basis of mammalian microRNA biogenesis by Dicer”:

Tests used:
Dicer (full-length) = Dicer (full-length) (Mus musculus, UniProt Q8R418 1-1916); assay: EMSA; EMSA conditions not in the material; protein storage/SEC buffer 50 mM Tris pH 8.0, 150 mM NaCl, 1 mM DTT, 2 mM MgCl2 (2 mM CaCl2 for WT Dicer structural work); settings: protein: recombinant, tags: N-term TwinStrep-HA-TEV, C-term TEV-2xFLAG-8xHis, hairpin, GCAA tetraloop, 3' overhang UU
[1] = molecular target: DicerO (oocyte isoform lacking HEL1) (Mus musculus, UniProt Q8R418-2 1-1678); assay: as above; settings: protein: recombinant, tags: N-term TwinStrep-HA-TEV, C-term TEV-2xFLAG-8xHis, hairpin, GCAA tetraloop, 3' overhang UU
Chain of DicerO (oocyte isoform lacking HEL1) (Q8R418 other isoform, or with tags, fused parts or gaps): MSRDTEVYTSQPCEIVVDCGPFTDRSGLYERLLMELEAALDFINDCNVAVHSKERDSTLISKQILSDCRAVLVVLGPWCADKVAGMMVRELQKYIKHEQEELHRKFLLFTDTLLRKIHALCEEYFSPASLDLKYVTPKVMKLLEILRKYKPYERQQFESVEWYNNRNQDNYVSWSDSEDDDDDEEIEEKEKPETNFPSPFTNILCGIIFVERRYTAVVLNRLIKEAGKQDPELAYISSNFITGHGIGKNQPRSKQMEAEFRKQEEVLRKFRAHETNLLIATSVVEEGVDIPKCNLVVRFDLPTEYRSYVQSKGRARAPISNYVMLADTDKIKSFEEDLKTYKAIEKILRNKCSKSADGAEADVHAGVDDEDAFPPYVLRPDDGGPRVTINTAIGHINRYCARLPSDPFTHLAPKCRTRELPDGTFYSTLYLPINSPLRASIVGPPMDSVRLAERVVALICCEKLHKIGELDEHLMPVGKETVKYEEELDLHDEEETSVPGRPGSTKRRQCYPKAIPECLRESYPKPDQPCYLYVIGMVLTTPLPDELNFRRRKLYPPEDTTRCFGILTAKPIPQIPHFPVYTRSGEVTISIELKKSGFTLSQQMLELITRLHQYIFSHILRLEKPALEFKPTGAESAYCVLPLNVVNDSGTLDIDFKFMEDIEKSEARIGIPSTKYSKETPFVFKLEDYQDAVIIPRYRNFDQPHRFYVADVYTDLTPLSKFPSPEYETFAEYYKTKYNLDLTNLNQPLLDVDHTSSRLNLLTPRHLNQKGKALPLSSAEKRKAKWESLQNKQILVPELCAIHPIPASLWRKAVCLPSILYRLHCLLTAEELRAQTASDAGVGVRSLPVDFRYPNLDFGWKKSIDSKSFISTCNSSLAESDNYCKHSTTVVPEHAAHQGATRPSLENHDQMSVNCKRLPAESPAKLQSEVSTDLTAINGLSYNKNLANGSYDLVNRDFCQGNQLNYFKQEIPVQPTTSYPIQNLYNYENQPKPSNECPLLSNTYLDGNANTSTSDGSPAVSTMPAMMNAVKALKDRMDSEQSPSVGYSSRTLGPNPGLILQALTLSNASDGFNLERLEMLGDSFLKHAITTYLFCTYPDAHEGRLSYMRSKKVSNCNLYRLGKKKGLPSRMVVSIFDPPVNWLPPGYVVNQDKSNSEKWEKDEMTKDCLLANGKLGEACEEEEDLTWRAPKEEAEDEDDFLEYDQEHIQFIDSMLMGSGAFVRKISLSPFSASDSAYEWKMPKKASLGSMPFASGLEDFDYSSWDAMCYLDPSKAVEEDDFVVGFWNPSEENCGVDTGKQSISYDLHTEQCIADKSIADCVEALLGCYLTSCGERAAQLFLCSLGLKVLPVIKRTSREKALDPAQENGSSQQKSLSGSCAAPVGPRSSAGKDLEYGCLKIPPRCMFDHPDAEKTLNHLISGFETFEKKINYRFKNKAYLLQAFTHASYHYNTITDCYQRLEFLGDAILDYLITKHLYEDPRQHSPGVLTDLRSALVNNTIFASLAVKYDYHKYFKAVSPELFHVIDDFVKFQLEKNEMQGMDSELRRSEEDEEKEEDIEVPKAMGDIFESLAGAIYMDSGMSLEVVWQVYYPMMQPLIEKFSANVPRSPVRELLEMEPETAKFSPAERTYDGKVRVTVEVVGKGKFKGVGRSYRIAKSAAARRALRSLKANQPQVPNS

Chain of Dicer (full-length) (Q8R418 whole entry, canonical isoform): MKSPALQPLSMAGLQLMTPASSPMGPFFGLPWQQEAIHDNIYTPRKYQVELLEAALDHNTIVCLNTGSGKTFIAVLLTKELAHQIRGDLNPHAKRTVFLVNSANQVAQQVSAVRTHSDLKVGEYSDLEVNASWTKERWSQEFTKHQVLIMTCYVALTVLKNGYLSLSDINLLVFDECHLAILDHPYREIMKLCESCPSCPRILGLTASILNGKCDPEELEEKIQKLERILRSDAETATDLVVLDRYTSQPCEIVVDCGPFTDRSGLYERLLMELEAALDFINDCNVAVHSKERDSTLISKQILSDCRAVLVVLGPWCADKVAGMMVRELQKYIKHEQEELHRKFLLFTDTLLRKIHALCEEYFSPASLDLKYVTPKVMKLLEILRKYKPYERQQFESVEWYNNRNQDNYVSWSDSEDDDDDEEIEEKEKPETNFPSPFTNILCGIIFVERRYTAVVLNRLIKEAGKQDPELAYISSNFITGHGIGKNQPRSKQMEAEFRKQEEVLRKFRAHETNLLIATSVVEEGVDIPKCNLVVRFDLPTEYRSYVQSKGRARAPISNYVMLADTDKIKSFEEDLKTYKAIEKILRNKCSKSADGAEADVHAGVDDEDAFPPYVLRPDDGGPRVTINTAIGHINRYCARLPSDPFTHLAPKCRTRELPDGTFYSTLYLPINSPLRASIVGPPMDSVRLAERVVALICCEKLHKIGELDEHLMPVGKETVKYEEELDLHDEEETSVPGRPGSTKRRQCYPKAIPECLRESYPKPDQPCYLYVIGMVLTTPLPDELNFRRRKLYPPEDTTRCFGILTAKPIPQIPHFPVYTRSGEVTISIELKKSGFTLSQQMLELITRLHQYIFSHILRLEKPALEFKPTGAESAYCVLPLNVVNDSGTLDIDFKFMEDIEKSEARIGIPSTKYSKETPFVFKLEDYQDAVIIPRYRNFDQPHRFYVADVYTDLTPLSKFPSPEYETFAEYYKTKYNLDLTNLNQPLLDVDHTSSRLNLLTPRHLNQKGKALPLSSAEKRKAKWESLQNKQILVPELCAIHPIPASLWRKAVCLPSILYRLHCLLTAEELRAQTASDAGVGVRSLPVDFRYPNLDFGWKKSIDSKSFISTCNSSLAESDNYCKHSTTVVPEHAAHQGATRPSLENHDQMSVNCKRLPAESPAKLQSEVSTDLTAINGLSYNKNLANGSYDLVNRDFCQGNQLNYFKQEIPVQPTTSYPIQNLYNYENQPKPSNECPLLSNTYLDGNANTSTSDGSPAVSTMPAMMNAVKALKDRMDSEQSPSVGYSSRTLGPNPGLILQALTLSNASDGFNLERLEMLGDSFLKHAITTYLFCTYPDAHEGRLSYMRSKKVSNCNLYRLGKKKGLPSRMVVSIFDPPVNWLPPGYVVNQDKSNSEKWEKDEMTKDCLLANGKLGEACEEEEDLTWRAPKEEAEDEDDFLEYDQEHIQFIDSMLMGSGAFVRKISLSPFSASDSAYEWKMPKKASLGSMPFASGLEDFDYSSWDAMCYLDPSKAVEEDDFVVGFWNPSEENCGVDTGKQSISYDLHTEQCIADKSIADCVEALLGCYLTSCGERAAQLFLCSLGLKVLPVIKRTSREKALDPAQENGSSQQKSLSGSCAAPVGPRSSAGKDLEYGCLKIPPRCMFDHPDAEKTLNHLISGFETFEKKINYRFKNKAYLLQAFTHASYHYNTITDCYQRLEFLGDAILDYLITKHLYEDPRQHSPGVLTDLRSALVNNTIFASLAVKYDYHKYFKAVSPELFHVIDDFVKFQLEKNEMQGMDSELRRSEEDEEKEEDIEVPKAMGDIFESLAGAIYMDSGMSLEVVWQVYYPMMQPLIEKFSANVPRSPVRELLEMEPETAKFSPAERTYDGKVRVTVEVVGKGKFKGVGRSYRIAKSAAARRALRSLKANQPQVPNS

B1: 42bp stem-loop (structured_RNA)
RNA: AGAGGAGAGGGACAAUAGAGGAGAGGGACAAUCAUAAAGGCCGCAAGGCCUUUAUGAUUGUCCCUCUCCUCUAUUGUCCCUCUCCUCUUU
Kd (Dicer (full-length); 42 bp stem): 115 ± 20 nM | Kd ([1]; 42 bp stem): 55 ± 4 nM

B2: 30bp stem-loop (structured_RNA)
RNA: AGAGGAGAGGGACAAUCAUAAAGGCCACUCGCAAGAGUGGCCUUUAUGAUUGUCCCUCUCCUCUUU
Kd (Dicer (full-length); 30 bp stem): 120 ± 27 nM | Kd ([1]; 30 bp stem): 79 ± 7 nM
